For data set [1], the target named is C81R mutant PCNA protein from S. cerevisiae (S. cerevisiae) (UniProt P15873). The data set is described as follows: crystal structure.
The data set “native gel or EMSA” deals with the molecule itself. The data set is described as follows: native gel or EMSA. Background: In EMSA bound probe runs differently from free probe, usually more slowly.
The data set “crystal structure” concerns the molecule itself. The data set is described as follows: crystal structure.
For data set [2], the target named is MutSα (Msh2-Msh6) from S. cerevisiae (S. cerevisiae, UniProt P25847 1-964; Q03834 1-1242). The data set is described as follows: ELISA.

Where a chain is given by its changes, count along the chain named. Numbers in names are those of the source.

Sequence of MutSα (Msh2-Msh6) from S. cerevisiae (P25847 whole entry, chain 1 of 2): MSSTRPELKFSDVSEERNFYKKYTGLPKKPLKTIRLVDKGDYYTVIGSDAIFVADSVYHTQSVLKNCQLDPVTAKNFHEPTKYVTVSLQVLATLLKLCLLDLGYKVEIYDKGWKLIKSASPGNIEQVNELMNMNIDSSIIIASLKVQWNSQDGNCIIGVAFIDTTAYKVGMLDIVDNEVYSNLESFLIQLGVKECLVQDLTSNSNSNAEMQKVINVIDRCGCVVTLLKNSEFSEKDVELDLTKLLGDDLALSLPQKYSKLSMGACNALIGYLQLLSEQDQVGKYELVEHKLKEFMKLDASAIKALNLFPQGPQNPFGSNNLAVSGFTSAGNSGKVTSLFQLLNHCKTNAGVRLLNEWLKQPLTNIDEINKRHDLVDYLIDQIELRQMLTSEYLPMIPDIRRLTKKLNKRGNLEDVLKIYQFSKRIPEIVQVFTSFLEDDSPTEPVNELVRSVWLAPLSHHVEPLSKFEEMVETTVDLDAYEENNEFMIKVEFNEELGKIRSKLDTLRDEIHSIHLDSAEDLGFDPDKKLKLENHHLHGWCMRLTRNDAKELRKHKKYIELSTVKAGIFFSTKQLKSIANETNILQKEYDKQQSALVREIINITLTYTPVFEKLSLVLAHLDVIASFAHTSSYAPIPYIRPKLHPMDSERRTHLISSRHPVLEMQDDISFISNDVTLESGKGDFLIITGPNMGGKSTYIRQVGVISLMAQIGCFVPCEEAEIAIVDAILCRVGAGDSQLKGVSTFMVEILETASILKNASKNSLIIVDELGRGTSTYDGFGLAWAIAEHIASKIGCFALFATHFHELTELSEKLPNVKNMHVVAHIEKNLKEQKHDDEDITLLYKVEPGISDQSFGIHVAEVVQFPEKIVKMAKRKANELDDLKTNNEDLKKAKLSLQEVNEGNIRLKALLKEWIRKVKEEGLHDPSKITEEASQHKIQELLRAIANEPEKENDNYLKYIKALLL
Sequence of MutSα (Msh2-Msh6) from S. cerevisiae (Q03834 whole entry, chain 2 of 2): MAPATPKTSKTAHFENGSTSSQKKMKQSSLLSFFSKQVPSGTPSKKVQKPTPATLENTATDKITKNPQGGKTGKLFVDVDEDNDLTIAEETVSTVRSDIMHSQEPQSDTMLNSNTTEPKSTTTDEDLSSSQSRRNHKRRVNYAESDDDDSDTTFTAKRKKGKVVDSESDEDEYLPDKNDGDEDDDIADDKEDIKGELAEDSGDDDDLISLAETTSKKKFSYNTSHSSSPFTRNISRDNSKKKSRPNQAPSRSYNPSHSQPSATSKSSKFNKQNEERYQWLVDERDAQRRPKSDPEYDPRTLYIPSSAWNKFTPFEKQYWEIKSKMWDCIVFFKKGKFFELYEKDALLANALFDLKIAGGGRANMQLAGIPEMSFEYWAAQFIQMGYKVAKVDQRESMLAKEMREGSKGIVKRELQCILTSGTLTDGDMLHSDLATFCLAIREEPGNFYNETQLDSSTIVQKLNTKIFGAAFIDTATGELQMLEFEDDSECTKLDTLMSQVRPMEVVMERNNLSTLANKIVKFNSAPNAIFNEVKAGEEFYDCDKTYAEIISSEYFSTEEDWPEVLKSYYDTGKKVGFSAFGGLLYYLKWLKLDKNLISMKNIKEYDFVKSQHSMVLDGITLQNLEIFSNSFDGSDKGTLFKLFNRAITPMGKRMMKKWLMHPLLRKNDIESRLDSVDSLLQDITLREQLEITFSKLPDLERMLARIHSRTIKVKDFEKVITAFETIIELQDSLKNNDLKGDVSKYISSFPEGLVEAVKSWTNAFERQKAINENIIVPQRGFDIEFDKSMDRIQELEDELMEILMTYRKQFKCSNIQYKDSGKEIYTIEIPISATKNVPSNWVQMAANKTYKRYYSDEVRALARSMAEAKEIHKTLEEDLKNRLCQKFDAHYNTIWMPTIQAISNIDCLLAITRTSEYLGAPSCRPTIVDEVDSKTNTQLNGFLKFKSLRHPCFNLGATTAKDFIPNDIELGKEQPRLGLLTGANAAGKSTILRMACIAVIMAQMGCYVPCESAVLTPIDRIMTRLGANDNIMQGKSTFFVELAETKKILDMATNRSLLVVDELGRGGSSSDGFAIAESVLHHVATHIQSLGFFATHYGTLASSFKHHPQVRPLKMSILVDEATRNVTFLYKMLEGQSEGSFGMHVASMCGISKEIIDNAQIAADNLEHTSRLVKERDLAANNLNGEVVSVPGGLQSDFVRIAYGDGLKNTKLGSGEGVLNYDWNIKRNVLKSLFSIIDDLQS

In the case of “C81R mutant PCNA protein from S. cerevisiae (from UniProt P15873 1-258) (natural protein)”, the stoichiometry N (usually the number of molecules, sites or subunits per partner or assembly) in data set [1] was found to be 3.

B1: wild-type PCNA protein (proliferating cell nuclear antigen) from S. cerevisiae (natural protein)
chain: MLEAKFEEASLFKRIIDGFKDCVQLVNFQCKEDGIIAQAVDDSRVLLVSLEIGVEAFQEYRCDHPVTLGMDLTSLSKILRCGNNTDTLTLIADNTPDSIILLFEDTKKDRIAEYSLKLMDIDADFLKIEELQYDSTLSLPSSEFSKIVRDLSQLSDSINIMITKETIKFVADGDIGSGSVIIKPFVDMEHPETSIKLEMDQPVDLTFGAKYLLDIIKGSSLSDRVGIRLSSEAPALFQFDLKSGFLQFFLAPKFNDEE
On to B1, for which the “stoichiometry N” value in the data set “native gel or EMSA” was found to be 3.

B2: C22Y mutant PCNA protein from S. cerevisiae (natural protein)
chain: B1 chain with C22Y
Regarding B2, the “stoichiometry N” value in the data set “crystal structure” was 3. Moreover, the binding result in data set [2] was “binds”.

B3: C81R mutant PCNA protein from S. cerevisiae (natural protein)
chain: B1 chain with C81R
For B3, in data set [2], the binding result is given as “binds”.

Source of the values: article PMC3845532 (Biochemistry, 2013).
